Laboratory results as given in article PMC9352680, “A comprehensive thermodynamic model for RNA binding by the Saccharomyces cerevisiae Pumilio protein PUF4”.
Changes are numbered by the printed parent chain. In names and notes the source's numbering stands.

T1: PUF4 RNA-binding domain (Saccharomyces cerevisiae, UniProt P25339 537-888)
T1 sequence: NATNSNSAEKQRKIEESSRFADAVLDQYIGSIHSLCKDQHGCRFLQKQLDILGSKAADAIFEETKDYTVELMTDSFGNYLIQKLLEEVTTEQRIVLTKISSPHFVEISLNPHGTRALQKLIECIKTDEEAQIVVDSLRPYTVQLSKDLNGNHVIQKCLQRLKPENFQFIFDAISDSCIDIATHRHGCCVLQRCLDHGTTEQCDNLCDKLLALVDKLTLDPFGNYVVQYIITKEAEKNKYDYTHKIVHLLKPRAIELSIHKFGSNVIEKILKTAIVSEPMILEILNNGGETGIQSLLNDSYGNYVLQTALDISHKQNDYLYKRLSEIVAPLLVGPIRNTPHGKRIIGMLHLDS

B1: Ib_S1_P5E.1_K5.1_C5.1_H5.1_[A4G]_A5.1_F5.1_[T8A]_T5.1 (ssRNA)
RNA: UCUCUUUGUGUUAAUAUCUCUU
B2: Id_ii_S2_P3E.2_K3.1_C3.2_[T-1C]_H3.1_A3.1_F3.1_T3.2_[T9C]_[A10G] (ssRNA)
RNA: UUUGAUUAAUAUGAUAUCGUUCUUUCUCCUGUAUAUACGUUCUUUCUCGAUAUCAUAUUAAUCUUU
B3: Id_ii_S2_P3E.2_K3.1_C3.2_[T-1A]_H3.1_A3.1_F3.1_T3.2_[T9A] (ssRNA)
RNA: B2 RNA with C29A, C38A, G39A
B4: Id_ii_S2_P3E.2_K3.1_C3.2_[T-1C]_H3.1_A3.1_F3.1_T3.2_[A10C] (ssRNA)
RNA: B2 RNA with C38U, G39C
B5: Id_ii_S2_P3E.2_K3.1_C3.2_[T-1A]_H3.1_A3.1_F3.1_T3.2_[T9C]_[A10T] (ssRNA)
RNA: B2 RNA with C29A, G39U
B6: Id_ii_S2_P3E.2_K3.1_C3.2_H3.1_A3.1_F3.1_T3.2_[T9G]_[A10T] (ssRNA)
RNA: B2 RNA with C29U, C38G, G39U
B7: Id_ii_S2_P3E.3_K3.2_C3.2_[C-2G]_[T-1G]_H3.2_A3.1_F3.1_T3.2_[T9A] (ssRNA)
RNA: B2 RNA with C28G, C29G, G31A, C38A, G39A
B8: Id_ii_S2_P3E.2_K3.1_C3.2_H3.1_A3.1_F3.1_T3.2_[T9A] (ssRNA)
RNA: B2 RNA with C29U, C38A, G39A
B9: Id_ii_S2_P3E.3_K3.2_C3.2_[C-2T]_[T-1C]_H3.2_A3.1_F3.1_T3.2_[T9C]_[A10C] (ssRNA)
RNA: B2 RNA with C28U, G31A, G39C
B10: Id_ii_S2_P3E.2_K3.1_C3.2_[T-1A]_H3.1_A3.1_F3.1_T3.2_[T9A]_[A10G] (ssRNA)
RNA: B2 RNA with C29A, C38A
B11: Id_ii_S2_P3E.2_K3.1_C3.2_[T-1C]_H3.1_A3.1_F3.1_T3.2_[T9A]_[A10C] (ssRNA)
RNA: B2 RNA with C38A, G39C
B12: Id_ii_S2_P3E.2_K3.1_C3.2_[T-1A]_H3.1_A3.1_F3.1_T3.2 (ssRNA)
RNA: B2 RNA with C29A, C38U, G39A
B13: Id_ii_S2_P3E.2_K3.1_C3.2_H3.1_A3.1_F3.1_T3.2_[T9G]_[A10C] (ssRNA)
RNA: B2 RNA with C29U, C38G, G39C
B14: Id_ii_S2_P3E.3_K3.2_C3.2_[C-2T]_[T-1G]_H3.2_A3.1_F3.1_T3.2_[A10G] (ssRNA)
RNA: B2 RNA with C28U, C29G, G31A, C38U
B15: Id_ii_S2_P3E.3_K3.2_C3.2_[C-2T]_[T-1G]_H3.2_A3.1_F3.1_T3.2_[T9G]_[A10C] (ssRNA)
RNA: B2 RNA with C28U, C29G, G31A, C38G, G39C
B16: Id_ii_S2_P3E.2_K3.1_C3.2_[T-1A]_H3.1_A3.1_F3.1_T3.2_[A10T] (ssRNA)
RNA: B2 RNA with C29A, C38U, G39U
B17: Id_ii_S2_P3E.3_K3.2_C3.2_[C-2G]_[T-1G]_H3.2_A3.1_F3.1_T3.2_[A10T] (ssRNA)
RNA: B2 RNA with C28G, C29G, G31A, C38U, G39U
B18: Id_ii_S2_P3E.3_K3.2_C3.2_[C-2G]_[T-1C]_H3.2_A3.1_F3.1_T3.2_[T9A]_[A10C] (ssRNA)
RNA: B2 RNA with C28G, G31A, C38A, G39C
B19: Id_ii_S2_P3E.3_K3.2_C3.2_[C-2T]_[T-1A]_H3.2_A3.1_F3.1_T3.2_[T9A]_[A10C] (ssRNA)
RNA: B2 RNA with C28U, C29A, G31A, C38A, G39C
B20: Id_ii_S2_P3E.2_K3.1_C3.2_H3.1_A3.1_F3.1_T3.2_[A10T] (ssRNA)
RNA: B2 RNA with C29U, C38U, G39U
B21: Id_ii_S2_P3E.3_K3.2_C3.2_[C-2T]_[T-1C]_H3.2_A3.1_F3.1_T3.2_[T9G]_[A10C] (ssRNA)
RNA: B2 RNA with C28U, G31A, C38G, G39C
B22: If_S2_P3E.2_K3.1_C3.2_H3.1_A3.1_F3.1_T3.2 (ssRNA)
RNA: B2 RNA with C29U, C38U, G39A
B23: Id_ii_S2_P3E.3_K3.2_C3.2_[C-2T]_[T-1G]_H3.2_A3.1_F3.1_T3.2_[A10C] (ssRNA)
RNA: B2 RNA with C28U, C29G, G31A, C38U, G39C
B24: Id_ii_S2_P3E.3_K3.2_C3.2_[C-2T]_[T-1G]_H3.2_A3.1_F3.1_T3.2_[A10T] (ssRNA)
RNA: B2 RNA with C28U, C29G, G31A, C38U, G39U
B25: Id_ii_S2_P3E.2_K3.1_C3.2_[T-1C]_H3.1_A3.1_F3.1_T3.2_[T9A]_[A10T] (ssRNA)
RNA: B2 RNA with C38A, G39U
B26: Id_ii_S2_P3E.3_K3.2_C3.2_[C-2G]_H3.2_A3.1_F3.1_T3.2_[T9C]_[A10C] (ssRNA)
RNA: B2 RNA with C28G, C29U, G31A, G39C
B27: Id_ii_S2_P3E.3_K3.2_C3.2_[C-2T]_[T-1C]_H3.2_A3.1_F3.1_T3.2_[A10T] (ssRNA)
RNA: B2 RNA with C28U, G31A, C38U, G39U
B28: Id_ii_S2_P3E.3_K3.2_C3.2_[C-2T]_[T-1C]_H3.2_A3.1_F3.1_T3.2_[T9A]_[A10T] (ssRNA)
RNA: B2 RNA with C28U, G31A, C38A, G39U
B29: Id_ii_S2_P3E.2_K3.1_C3.2_[T-1A]_H3.1_A3.1_F3.1_T3.2_[T9A]_[A10T] (ssRNA)
RNA: B2 RNA with C29A, C38A, G39U

Target: T1, PUF4 RNA-binding domain
Test: Mg; RNA-MaP; 20 mM Na-HEPES pH 7.4, 30 mM KOAc, 0.75 mM MgCl2, 0.1% Tween-20, 5% glycerol, 0.1 mg/mL BSA, 2 mM DTT; 25 C; 0.0125-409.6 nM protein
Conditions: tags: N-His6-TEV cleaved; C-SNAP kept, Cy3B-labelled; label: tethered on chip by stalled RNA polymerase

| Binder | Kd [nM] |
| --- | --- |
| B1 | 134 |
| B2 | 4.24 |
| B3 | 3.89 |
| B4 | 0.998 |
| B5 | 5.2 |
| B6 | 4.32 |
| B7 | 872 |
| B8 | 2.73 |
| B9 | 228 |
| B10 | 15.2 |
| B11 | 2.58 |
| B12 | 1.35 |
| B13 | 2.46 |
| B14 | 1.52 |
| B15 | 2.63 |
| B16 | 1.78 |
| B17 | 137 |
| B18 | 592 |
| B19 | 203 |
| B20 | 1.32 |
| B21 | 393 |
| B22 | 1.16 |
| B23 | 1.72 |
| B24 | 1.25 |
| B25 | 1.48 |
| B26 | 31.2 |
| B27 | 68.1 |
| B28 | 147 |
| B29 | 2.96 |
